Measurements reported in patent US20060115475A1 (published 2006).

Legend:
[1] = target: T1, soluble human TLR3 extracellular domain (human, UniProt O15455 24-703); assay: ELISA, TLR3 binding assay
T1 construct: also called hTLR3 extracellular domain; extracellular domain of human TLR3

[2] = target: T1, soluble human TLR3 extracellular domain; assay: ELISA, TLR3 binding assay as in Example 20
[3] = target: T2, Human hexa-histidine-TLR3 (human, UniProt O15455 24-703, limits assumed); assay: Biacore 3000, hexa-histidine-TLR3 captured on anti-His antibody, mAb in solution, 25 C, 1:1 model
T2 construct: Captured by anti-His antibody on a CM5 chip; also called TLR3 (captured on the chip surface); not shown: hexa-histidine tag

[4] = target: T1, soluble human TLR3 extracellular domain; assay: ELISA, coated soluble hTLR3 extracellular domain, anti-mouse IgG-HRP
[5] = target: T1, soluble human TLR3 extracellular domain; assay: Biacore 2000, mAb captured on protein A, TLR3 in solution, 25 C, 1:1 model; mAb capture (mAb on protein A chip, TLR3 in solution)
Protocol: Measurement of binding affinity by Biacore was performed by mAb capture and TLR3 capture techniques. MAb capture analysis was performed at 25° C. using a Biacore 2000 biosensor equipped with a CM5 chip with surfaces modified with protein A (6,000 RU) at 25° C. by standard amine coupling. Antibody was diluted to 30 nM and captured for one minute on different protein A surfaces. TLR3 was injected at 0, 0.1, 0.3, 1.0, 3.0, and 9.0 nM and associations and dissociations were monitored for 5 minutes. The protein A modified surfaces were regenerated using two 6-second pulses 100 mM phosphoric acid. Available binding data sets were fit to a 1:1 interaction model (CLAMP™). The rate constants and their ratio (KD=kd/kₐ) and the error of fit carried over the estimate of the apparent equilibrium constants were calculated.

Row | EC50 [1] [µg/mL] | EC50 [2] [µg/mL] | Kd [3] [pM] | EC50 [4] [µg/mL] | Kd [5] [pM] | Binder
1 | > 1 | 1.22 | – | – | – | human-adapted C1068 variant mAb HBV6 (Vκ CDR1 H30S in the HV1/LV1 background) (antibody, V domains shown, Made in the HV1/LV1 background; not shown: human kappa light chain constant region) VH: QVQLVQSGAEVKKPGASVKVSCKASGYTFTTYWIHWVRQAPGQRLEWMGEINPNNGRINYNEKFKTRVTITRDTSASTAYMELSSLRSEDTAVYYCARVGVMITTFPYWGQGTLVTVSS VL: DIQMTQSPSSLSASVGDRVTITCRASGNISNYLAWYQQKPGKAPKLLIYNAKTLADGVPSRFSGSGSGTDFTLTISSLQPEDFATYYCQHFWSTPFTFGQGTKLEIK
2 | – | – | 316 | 0.008 | 1200 | murine anti-hTLR3 antagonist mAb 1068 (antibody, mouse IgG1, V domains shown, also called C1068; mAb C1068) VH: QVQLQQPGAELVQPGTSVRLSCKASGYIFTTYWIHWVKQRPGQGLEWIGEINPNNGRINYNEKFKTKATLTVDKSSSTAYMQLSSLTSEDSAVYYCTRVGVMITTFPYWGQGTLVTVSA VL: DIQMTQSPASLSASVGETVTITCRASGNIHNYLAWYQQKQGKSPQLLVYNAKTLADGVPSRFSGSESGTQYSLKINSLQPEDFGSYYCQHFWSTPFTFGSGTKLELK
